Assay results: patent US20230203100A1, “COMPOSITIONS INCLUDING MULTI-AGONIST PEPTIDES AND METHODS OF MANUFACTURE AND USE” (Pep2Tango Therapeutics Inc., priority 2021, published 2023)
Like-named read-outs stand apart in the source and are kept apart here. Starred links: 1 amine or outer side, 2 acyl side, 3 side chain; linkers in the order of their positions; H or OH if unused. Non-standard residues stand in square brackets, D forms with d. Groups on a side chain read outwards from the residue. γGlu = O=C(O)[C@H](CCC(=O)[*:2])N[*:1]; C(:O)(CH2)nR3 = not defined here; Aib = CC(C)(N)C(=O)O

T1: Human GIP receptor (human, UniProt P48546)
T1 sequence: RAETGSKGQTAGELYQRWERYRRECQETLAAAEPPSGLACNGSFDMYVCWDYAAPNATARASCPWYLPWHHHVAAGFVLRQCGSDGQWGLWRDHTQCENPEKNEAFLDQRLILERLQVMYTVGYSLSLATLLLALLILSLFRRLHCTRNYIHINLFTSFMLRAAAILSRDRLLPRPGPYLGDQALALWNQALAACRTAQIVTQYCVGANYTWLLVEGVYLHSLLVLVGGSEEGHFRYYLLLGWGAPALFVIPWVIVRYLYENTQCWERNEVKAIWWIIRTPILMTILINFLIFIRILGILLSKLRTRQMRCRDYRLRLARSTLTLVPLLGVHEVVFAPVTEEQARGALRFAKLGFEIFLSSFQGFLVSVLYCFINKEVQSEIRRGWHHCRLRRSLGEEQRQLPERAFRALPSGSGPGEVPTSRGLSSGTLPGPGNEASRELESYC

T2: Human calcitonin receptor (human, UniProt P30988)
T2 sequence: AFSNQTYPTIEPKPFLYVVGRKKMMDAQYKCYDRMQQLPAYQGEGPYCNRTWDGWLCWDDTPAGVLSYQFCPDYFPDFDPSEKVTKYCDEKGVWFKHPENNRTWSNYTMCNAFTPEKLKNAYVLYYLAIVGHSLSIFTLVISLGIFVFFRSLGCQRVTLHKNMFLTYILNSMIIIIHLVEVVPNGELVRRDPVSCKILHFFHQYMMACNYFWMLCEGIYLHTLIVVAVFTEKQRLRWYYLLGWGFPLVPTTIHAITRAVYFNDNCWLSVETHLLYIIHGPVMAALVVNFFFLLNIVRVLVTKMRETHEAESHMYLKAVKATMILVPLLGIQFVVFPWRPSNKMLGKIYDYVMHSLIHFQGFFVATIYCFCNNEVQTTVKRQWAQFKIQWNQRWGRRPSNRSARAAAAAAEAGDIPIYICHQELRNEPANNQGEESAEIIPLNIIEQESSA

T3: Human AMY3 receptor (CT/RAMP3) (human, UniProt P30988)
T3 sequence 1: T2 sequence
T3 sequence 2: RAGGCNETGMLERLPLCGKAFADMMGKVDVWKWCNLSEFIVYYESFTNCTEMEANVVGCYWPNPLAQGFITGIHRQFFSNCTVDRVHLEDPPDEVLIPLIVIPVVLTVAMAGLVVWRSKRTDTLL

B1: Peptide No. 17 (peptide)
peptide: [dY]AEGTFTSDYSIALDKIAQQAFVQWLLAGGPSCNTATCVLGRLSQELHRLQTYPRTNTGK([γGlu-γGlu-C(:O)(CH2)nR3])NTY-NH2
modifications: reading uncertain; also: K* n and R3 not given here, acetate salt
B2: Peptide No. 22 (peptide)
peptide: [dY]AEGTFTSDYSIQLDKIAQQAFVQWLLAGSGCNTATCATQRLANFLVHSSNNFGPILPPTNVGK([γGlu-γGlu-C(:O)(CH2)nR3])NTY-NH2
modifications: reading uncertain; also: K* n and R3 not given here, acetate salt
B3: (d)YAEGTFTSDYSIALDKIAQQAFVQWLLAGGPSCNTATCVLGRLSQELHRLQTYPRTNTGK*-N-T-Y-NH2 (peptide)
chain: [dY]AEGTFTSDYSIALDKIAQQAFVQWLLAGGPSCNTATCVLGRLSQELHRLQTYPRTNTGKNTY-NH2
modifications: not fully specified (residue 60); also: acyl end R3 and chain length n (12-20) not fixed
notes: K* indicates a linking group, e.g. Lys-γGlu-γGlu—C(═O)(CH2)nR3
B4: Peptide No. 10 (peptide)
peptide: Y[Aib]EGTFTSDYSI[Aib]LDKIAQK([γGlu-γGlu-C(:O)(CH2)nR3])AFVQWLLAGGPSCNTATCATQRLANFLVHSSNNFGPILPPTNVGSNTY-NH2
modifications: reading uncertain; also: K* acyl n and R3 not given here, acetate salt, printed as Y-Aib-E-G-T-F-T-S-D-Y-S-I-Aib-L-D-K-I-A-Q-K*-AFVQWLLAGGPSCNTATCATQRLANFLVHSSNNFGPILPPTNVGSNTY-NH2
B5: Peptide No. 15 (peptide)
peptide: Y[dA]EGTFTSDYSIALDKIAQQAFVQWLLAGGPSCNTATCVLGRLSQELHRLQTYPRTNTGK([γGlu-γGlu-C(:O)(CH2)nR3])NTY-NH2
modifications: reading uncertain; also: K* n and R3 not given here, acetate salt
B6: Peptide No. 21 (peptide)
peptide: [dY]AEGTFTSDYSIQLDKIAQQAFVQWLLAGSGCNTATCVLGRLSQELHRLQTYPRTNTGK([γGlu-γGlu-C(:O)(CH2)nR3])NTY-NH2
modifications: reading uncertain; also: K* n and R3 not given here, acetate salt
B7: Peptide No. 19 (peptide)
peptide: [dY]AEGTFTSDYSIQLDKIAQQAFVQWLLAGGPSCNTATCVLGRLSQELHRLQTYPRTNTGK([γGlu-γGlu-C(:O)(CH2)nR3])NTY-NH2
modifications: reading uncertain; also: K* n and R3 not given here, acetate salt

Columns and labels:
[1] = cited from earlier work
[2] = in vivo; cited from earlier work
[3] = target: Human GLP-1 receptor (human) (UniProt P43220)
Human GLP-1 receptor = Human GLP-1 receptor (human, UniProt P43220); test: cell-based or functional assay
Human GIP receptor = target: T1, Human GIP receptor; test: cell-based or functional assay
[4] = target: T2, Human calcitonin receptor; test: cell-based or functional assay
[5] = target: T3, Human AMY3 receptor (CT/RAMP3); test: cell-based or functional assay
[6] = Acute food intake in lean rats after single s.c. administration; type: in vivo, Sprague Dawley male rats; conditions: 50 nmoles/kg single s.c., mean +/- SEM
Protocol: (§2) Sprague Dawley male rats (5 weeks of age) were purchased from Charles River (Spain) and single housed for individual registration of food consumption. […] Rats were fed ad libitum a standard rodent chow diet (CHD) (A04, U8220G10R, SAFE).
(§3) For all experimental groups, food was replaced immediately after lights were turned off.
(§4) Food intake was measured at different time-intervals post-injection up to 72 h using a precision balance. Cumulative food intake was calculated for the indicated time-periods. Body weight was measured at the indicated time-periods. Mean accumulated food intake in each dose group was compared to vehicle and reported as a percentage of mean food intake in the vehicle group, which was defined as 100%.
(§5) All data shown are the mean ± standard error (SEM).

[7] = Body weight in lean rats after single s.c. administration; type: in vivo, Sprague Dawley male rats; conditions: mean±SEM
Protocol: as §2, §3, §4, §5

[8] = Blood glucose after single s.c. administration in non-fasted mice; type: in vivo; conditions: 50 nmoles/Kg single s.c., mean±SEM
Protocol: (§1) Differences were considered statistically significant at p<0.05. Data analysis was carried out with GraphPad software (GraphPad Prism).

[9] = Acute food intake in lean mice after single s.c. administration; type: in vivo, C57BL/6j male mice; conditions: 50 nmoles/kg single s.c., time period not given, mean±SEM
Protocol: as §1

Molecule	EC50 (nM), cAMP cell-based agonist assay (Human GLP-1 receptor) [nM]	EC50 (nM), cAMP cell-based agonist assay (Human GIP receptor) [nM]	EC50 (nM), cAMP cell-based agonist assay [4] [nM]	EC50 (nM), cAMP cell-based agonist assay [5] [nM]	further results
CC[C@H](C)[C@H](NC(=O)[C@H](CO)NC(=O)[C@H](Cc1ccc(O)cc1)NC(=O)[C@H](CC(=O)O)NC(=O)[C@H](CO)NC(=O)[C@@H](NC(=O)[C@H](Cc1ccccc1)NC(=O)[C@@H](NC(=O)CNC(=O)[C@H](CCC(=O)O)NC(=O)[C@H](C)NC(=O)[C@@H](N)Cc1ccc(O)cc1)[C@@H](C)O)[C@@H](C)CC)C(=O)N[C@@H](C)C(=O)N[C@@H](CCSC)C(=O)N[C@@H](CC(=O)O)C(=O)N[C@@H](CCCCN)C(=O)N[C@H](C(=O)N[C@@H](Cc1c[nH]cn1)C(=O)N[C@@H](CCC(N)=O)C(=O)N[C@@H](CCC(N)=O)C(=O)N[C@@H](CC(=O)O)C(=O)N[C@@H](Cc1ccccc1)C(=O)N[C@H](C(=O)N[C@@H](CC(N)=O)C(=O)N[C@@H](Cc1c[nH]c2ccccc12)C(=O)N[C@@H](CC(C)C)C(=O)N[C@@H](CC(C)C)C(=O)N[C@@H](C)C(=O)N[C@@H](CCC(N)=O)C(=O)N[C@@H](CCCCN)C(=O)NCC(=O)N[C@@H](CCCCN)C(=O)N[C@@H](CCCCN)C(=O)N[C@@H](CC(N)=O)C(=O)N[C@@H](CC(=O)O)C(=O)N[C@@H](Cc1c[nH]c2ccccc12)C(=O)N[C@@H](CCCCN)C(=O)N[C@@H](Cc1c[nH]cn1)C(=O)N[C@@H](CC(N)=O)C(=O)N[C@H](C(=O)N[C@H](C(=O)N[C@@H](CCC(N)=O)C(=O)O)[C@@H](C)O)[C@@H](C)CC)C(C)C)[C@@H](C)CC [GIP, glucose-dependent insulinotropic polypeptide]					half-life of intact GIP ([1]; diabetic subjects): ~5.2 min; half-life of intact GIP ([1]; healthy subjects): approximately 7.3 minutes
glucagon-like peptide-1 [GLP-1]					metabolic clearance rate of active GLP-1 [2]: 12 to 13 min
Exendin-4 (from UniProt P26349) (ligand)					EC50 (nM), cAMP cell-based agonist assay [3]: 0.007 nM
B1	5.7	0.81	0.1	1.3	
B2	42	16	5.78	15	
B3					Cumulative Food Intake Reduction vs. Vehicle (%) 12 hr. ([6]; cumulative to 12 hr.): 21.8 +/- 2.62%; Cumulative Food Intake Reduction vs. Vehicle (%) 24 hr. ([6]; cumulative to 24 hr.): 31.8 +/- 2.10%; Cumulative Food Intake Reduction vs. Vehicle (%) 48 hr. ([6]; cumulative to 48 hr.): 32.3 +/- 1.66%; Cumulative Food Intake Reduction vs. Vehicle (%) 72 hr. ([6]; cumulative to 72 hr.): 28.7 +/- 1.69%; Food Intake Reduction by Intervals vs. Vehicle (%) 0-12 hr. ([6]; interval 0-12 hr.): 21.8 +/- 2.62%; Food Intake Reduction by Intervals vs. Vehicle (%) 12-24 hr. ([6]; interval 12-24 hr.): 89.1 +/- 3.69%; Food Intake Reduction by Intervals vs. Vehicle (%) 24-48 hr. ([6]; interval 24-48 hr.): 32.8 +/- 3.69%; Food Intake Reduction by Intervals vs. Vehicle (%) 48-72 hr. ([6]; interval 48-72 hr.): 19.4 +/- 2.31%; Body Weight Reduction (G) 24 h ([7]; 24 h): -9.0 ± 1.01 g; Body Weight Reduction (G) 48 h ([7]; 48 h): -13.0 ± 0.84 g; Body Weight Reduction (G) 72 h ([7]; 72 h): -14.8 ± 1.30 g; Blood glucose 30 min ([8]; 30 min after injection): 140.4 ± 8.41 mg/dL; Blood glucose 120 min ([8]; 120 min after injection): 138.4 ± 1.63 mg/dL; Blood glucose Time 0 ([8]; time 0 (baseline)): 159.6 ± 5.78 mg/dL; Cumulative Food Intake Reduction Relative to Vehicle (%) ([9]; 1st of 4 value columns): 20.5±0.86%; Cumulative Food Intake Reduction Relative to Vehicle (%) ([9]; 2nd of 4 value columns): 25.3±1.93%; Cumulative Food Intake Reduction Relative to Vehicle (%) ([9]; 3rd of 4 value columns): 12.2±4.03%; Cumulative Food Intake Reduction Relative to Vehicle (%) ([9]; 4th of 4 value columns): 2.6±5.68%
B4	3.87	0.05	12.4	7	
B5	5.2	0.13	0.071	1.1	
B6	43	20	0.11	1.6	
B7	8.23	4.6	0.1	1.03	
